From patent US20190241659A1 (AstraZeneca / MedImmune, published 2019)

How the values were obtained:
[1] = biological target: T1, human CD40 on the cell surface (CD40 transfected HEK293 cells, Ramos human B cells, other CD40-bearing cells) (human, UniProt P25942 21-277); test: flow cytometry, Alexa 647 conjugate on CD40 transfected 293 cells
T1 construct: the transfected construct is not described further

[2] = biological target: T2, CD40-Fc protein (Sino-Biological), biotinylated (Homo sapiens (Human), UniProt P25942 21-193, biotinylated in the lab (sites not given) when used for capture); test: Octet (BLI); G4P-PDL1 held on captured hPDL1-His, then CD40-Fc 100nM
T2 construct: Bought; also called CD40-biotin; not shown: Fc of the purchased CD40-Fc
T2 sequence (P25942 21-193): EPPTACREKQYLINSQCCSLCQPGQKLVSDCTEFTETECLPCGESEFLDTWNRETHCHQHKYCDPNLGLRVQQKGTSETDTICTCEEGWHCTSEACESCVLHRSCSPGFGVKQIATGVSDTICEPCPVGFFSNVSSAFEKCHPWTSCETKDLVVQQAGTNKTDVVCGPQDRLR

T1 sequence (P25942 21-277 limits assumed): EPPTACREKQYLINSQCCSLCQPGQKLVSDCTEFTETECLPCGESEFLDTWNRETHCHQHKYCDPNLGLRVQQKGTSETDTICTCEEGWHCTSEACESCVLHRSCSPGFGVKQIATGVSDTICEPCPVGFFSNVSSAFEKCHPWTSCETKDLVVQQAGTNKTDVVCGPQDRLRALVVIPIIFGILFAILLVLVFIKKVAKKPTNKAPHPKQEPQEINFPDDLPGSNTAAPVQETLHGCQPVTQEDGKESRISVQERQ

- binding result [1]: no binding (tested: about 4x10^4 pM)
- binding result [2]: no binding (tested: 100 nM CD40-Fc)
B1: anti-PDL1 (MEDI4736) in human IgG4 isotype (antibody, V domains shown)
VH: EVQLVESGGGLVQPGGSLRLSCAASGFTFSRYWMSWVRQAPGKGLEWVANIKQDGSEKYYVDSVKGRFTISRDNAKNSLYLQMNSLRAEDTAVYYCAREGGWFGELAFDYWGQGTLVTVSS
VL: EIVLTQSPGTLSLSPGERATLSCRASQRVSSSYLAWYQQKPGQAPRLLIYDASSRATGIPDRFSGSGSGTDFTLTISRLEPEDFAVYYCQQYGSLPWTFGQGTKVEIKR
notes: Human IgG4 (228P) format of MEDI4736; also called MEDI4736 IgG4; anti-PD-L1 (MED4736)
